The values below come from article doi:10.1101/2022.09.16.508221 (bioRxiv, 2022).

The data set “mass photometry” concerns the molecule itself. Kind of data set: mass photometry.
The data set “SEC” deals with the molecule itself. Kind of data set: SEC. On the technique in general: In gel filtration, larger molecules generally elute earlier.

“And” between values parts separate entries of the source, which are not always exact repeats. Equal entries are not always repeated.

B1: Hermes transposase (full-length, with the mutations Q2E and K128G) (enzyme, Musca domestica, UniProt Q25438 1-612, looked up)
chain: MEKMDNLEVKAKINQGLYKITPRHKGTSFIWNVLADIQKEDDTLVEGWVFCRKCEKVLKYTTRQTSNLCRHKCCASLKQSRELKTVSADCKKEAIEKCAQWVVRDCRPFSAVSGSGFIDMIKFFIKVGAEYGEHVNVEELLPSPITLSRKVTSDAKEKKALISREIKSAVEKDGASATIDLWTDNYIKRNFLGVTLHYHENNELRDLILGLKSLDFERSTAENIYKKLKAIFSQFNVEDLSSIKFVTDRGANVVKSLANNIRINCSSHLLSNVLENSFEETPELNMPILACKNIVKYFKKANLQHRLRSSLKSECPTRWNSTYTMLRSILDNWESVIQILSEAGETQRIVHINKSIIQTMVNILDGFERIFKELQTCSSPSLCFVVPSILKVKEICSPDVGDVADIAKLKVNIIKNVRIIWEENLSIWHYTAFFFYPPALHMQQEKVAQIKEFCLSKMEDLELINRMSSFNELSATQLNQSDSNSHNSIDLTSHSKDISTTSFFFPQLTQNNSREPPVCPSDEFEFYRKEIVILSEDFKVMEWWNLNSKKYPKLSKLALSLLSIPASSAASERTFSLAGNIITEKRNRIGQQTVDSLLFLNSFYKNFCKLDI
For the protein B1, the stoichiometry N (commonly the number of molecules, sites or subunits per partner or assembly) in the data set “mass photometry” was 2; in the data set “SEC” it was 8 and 6.
